Where a chain is given by its changes, count along the chain named.
T1: mouse IL-2Rβ (mouse) (UniProt P16297)
T1 sequence (looked up): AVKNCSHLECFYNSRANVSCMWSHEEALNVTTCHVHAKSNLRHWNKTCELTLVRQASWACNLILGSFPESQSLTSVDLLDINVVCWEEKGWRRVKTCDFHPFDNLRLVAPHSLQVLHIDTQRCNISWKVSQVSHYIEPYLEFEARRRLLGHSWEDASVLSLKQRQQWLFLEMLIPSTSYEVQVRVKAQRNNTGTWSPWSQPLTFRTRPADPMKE

T2: human interleukin-2 receptor β-chain (IL-2Rβ; CD122), recombinant protein (human) (UniProt P14784)
T2 sequence: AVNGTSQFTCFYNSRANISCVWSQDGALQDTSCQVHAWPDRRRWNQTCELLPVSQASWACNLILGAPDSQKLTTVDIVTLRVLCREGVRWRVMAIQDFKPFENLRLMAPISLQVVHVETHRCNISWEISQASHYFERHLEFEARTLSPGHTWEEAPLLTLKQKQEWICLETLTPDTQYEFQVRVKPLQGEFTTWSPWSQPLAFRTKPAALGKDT

T3: cynomolgus monkey IL-2Rβ/CD122 subunit (cynomolgus monkey) (UniProt Q38J85)
T3 sequence (looked up): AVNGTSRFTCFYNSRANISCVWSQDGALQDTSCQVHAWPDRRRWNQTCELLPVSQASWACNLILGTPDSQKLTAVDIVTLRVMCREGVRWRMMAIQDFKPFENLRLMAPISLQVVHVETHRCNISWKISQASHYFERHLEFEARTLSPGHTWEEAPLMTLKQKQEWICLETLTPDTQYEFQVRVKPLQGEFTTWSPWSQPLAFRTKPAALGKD

B1: 18-MP03C03 VHH (periplasmic extract) (VHH)
VHH: QVQLVESGGGLVQPGGSLRLSCAISGGTLDSYGIGWVRQAPGKQREGVSCMSRSDDRTYYADSVKGRFTISKDSAKNTVYLQMTSLKPEDTAVYYCAAVDAYGCSLVQPTTYDFWGLGTQVTVSS
B2: 22-MP03F12 VHH (periplasmic extract) (VHH)
VHH: EVQLVESGGGLVQAGGSLRLSCAASGSIFSINAMAWFRQVPGMERELVAAISRDGGASVYRDSVKGRFTISRDNSKNTVYLQMNTLKPEDTAIYVCAATRAIGWTARWITTDFDFWGQGTQVTVSS
B3: 24-MP06E05 VHH (periplasmic extract) (VHH)
VHH: QVQLVESGGELVQGGASLRLSCAASGRTFSNANMAWFRQAPEKEREFVALITWSSGSTLYADSVKGRFTISRDNARKMVYLQMNSLKPEDTAVYYCAADGPPYSGTYYRYDTYDYWGQGTQVTVSS
B4: 17-MP02C09 VHH (periplasmic extract) (VHH)
VHH: QVQLQESGGGLVQAGGSLRLSCVASGSVSSINGMAWYRQGADNQRVLVAAISRVGNTAYGDSVKGRFTISRQNARNTVYLQMNSLKPEDTAVYYCNADSWGGDDYWGQGTQVTVSS
B5: 15-MP02E06 VHH (periplasmic extract) (VHH)
VHH: QVQLVESGGGSVQPGGSLRLSCAASGFTFSNYAMSWVRQAPGKGLEWVASITGFGRGTDYADSVKGRFTISRDNAEDTLYLQMNSLKPEDTAVYYCAKYSSSTYYPPTPARGRDYRGQGTQVTVSS
B6: 16-MP02B08 VHH (periplasmic extract) (VHH)
VHH: EVQLVESGGGLVQAGGSLRLSCAASGRAIENYPVGWFRQAPGKEREFVAAITWISGSTLYADSVKGRFTISRDNAKNTVYLQMSSLKPEDTALYYCAAALKTITRGQNDYSYWGQGTQVTVSS
B7: 20-MP03F10 VHH (periplasmic extract) (VHH)
VHH: EVQLVESGGGLVQAGGSLRLSCAASGRDFSSYAMGWFRQAPGKEREFVVAITWTKRSTDFPDSVKGRFTISRDNAKNTVYLDMNSLKPEDTAVYYCASARGLPVTPLGDIIYWGEGTLVTVSS
B8: 19-MP03F08 VHH (periplasmic extract) (VHH)
VHH: EVQLVESGGGLVQTGGSLRLSCAASGGTFSRDAMAWFRQVPGKEREFVALISWSGATTNYADSVKGRFAISRDNGKNTVYLQMNRLKPADTAIYYCAADRRPMGSRSYFEPTEYDDWGQGTQVTVSS
B9: 18-MP03C03 VHH-hFc, monospecific monovalent (Fc fusion, part only; not given: Both Fc arms and linker, not shown: another chain or arm of the molecule; a dimerising Fc or GST; large carriers; small tags and cut ends)
VHH: B1 VHH
B10: 22-MP03F12 VHH-hFc, monospecific monovalent (Fc fusion, part only; not given: Both Fc arms and linker, not shown: another chain or arm of the molecule; a dimerising Fc or GST; large carriers; small tags and cut ends)
VHH: B2 VHH
B11: 24-MP06E05 VHH-hFc, monospecific monovalent (Fc fusion, part only; not given: Both Fc arms and linker, not shown: another chain or arm of the molecule; a dimerising Fc or GST; large carriers; small tags and cut ends)
VHH: B3 VHH
B12: 17-MP02C09 VHH-hFc, monospecific monovalent (Fc fusion, part only; not given: Both Fc arms and linker, not shown: another chain or arm of the molecule; a dimerising Fc or GST; large carriers; small tags and cut ends)
VHH: B4 VHH
B13: 15-MP02E06 VHH-hFc, monospecific monovalent (Fc fusion, part only; not given: Both Fc arms and linker, not shown: another chain or arm of the molecule; a dimerising Fc or GST; small tags and cut ends)
VHH: B5 VHH
B14: 16-MP02B08 VHH-hFc, monospecific monovalent (Fc fusion, part only; not given: Both Fc arms and linker, not shown: another chain or arm of the molecule; a dimerising Fc or GST; large carriers; small tags and cut ends)
VHH: B6 VHH
B15: 20-MP03F10 VHH-hFc, monospecific monovalent (Fc fusion, part only; not given: Both Fc arms and linker, not shown: another chain or arm of the molecule; a dimerising Fc or GST; large carriers; small tags and cut ends)
VHH: B7 VHH
B16: 19-MP03F08 VHH-hFc, monospecific monovalent (Fc fusion, part only; not given: Both Fc arms and linker, not shown: another chain or arm of the molecule; a dimerising Fc or GST; large carriers; small tags and cut ends)
VHH: B8 VHH
B17: 23-MP06F03 VHH-hFc, monospecific monovalent (Fc fusion, part only; not given: Both Fc arms and linker, not shown: another chain or arm of the molecule; a dimerising Fc or GST; large carriers; small tags and cut ends)
VHH: QVQLVESGGGLVQAGGSLRLSCAVSGDVFVRYTMAWFRQAPGKEREFVASVTDSGRTTDYVHSVKGRFTVSRDNAKNTVYLQMNNLKPEDTAVYYCAANTDYFQIKSLDANTWGQGTQVTVSS
B18: 26-MP06A07 VHH-hFc, monospecific monovalent (Fc fusion, part only; not given: Both Fc arms and linker, not shown: another chain or arm of the molecule; a dimerising Fc or GST; large carriers; small tags and cut ends)
VHH: B17 VHH with V5Q, V24A, D59E, H62D, V79A, V93I, K106R, A110L
B19: 9-MP05G01 VHH-hFc, monospecific monovalent (Fc fusion, part only; not given: Both Fc arms and linker, not shown: another chain or arm of the molecule; a dimerising Fc or GST; small tags and cut ends)
VHH: EVQLVESGGGLVQAGGSLRLSCAASGGSIYTYNMGWFRQAPGKEREFVAGTLWSGGDSVYADFAKGRFTLSRENAKNTLYLQMNSLKPEDTATYYCAIDPLSLTSDWRVDELSSWGKGTLVTVSS
B20: 10-MP05F03 VHH-hFc, monospecific monovalent (Fc fusion, part only; not given: Both Fc arms and linker, not shown: another chain or arm of the molecule; a dimerising Fc or GST; small tags and cut ends)
VHH: QVQLVESGGGLVQAGGSLRLSCAASGIPFDNYAMGWFRQAPGKEREFVAARDLEGIITRYGDSVKGRFTISRGNAKNTVFLQMNSLKPEDTAVYYCAARDGGVVAGSRSSAQYNYWGQGTQVTVSS
B21: 8-MP01C12 VHH-hFc, monospecific monovalent (Fc fusion, part only; not given: Both Fc arms and linker, not shown: another chain or arm of the molecule; a dimerising Fc or GST; small tags and cut ends)
VHH: QVQLVESGGGLVQPGGSLRLSCATSGFTFSNNFMSWVRQAPGKGLEFVSTISYGGESTTYAEAVKGRFTISRDNAKNTLYLQMNNLKPEDTAIYYCAKATSYTSIRGAPRGQGTQVTVSS
B22: 11-MP05H04 VHH-hFc, monospecific monovalent (Fc fusion, part only; not given: Both Fc arms and linker, not shown: another chain or arm of the molecule; a dimerising Fc or GST; small tags and cut ends)
VHH: QLQLVESGGGLVQAGGSLRLSCAASGLTFEGYAIGWFRQAPGKEREGVSYITGSDGTTYYINSVKGRFTISSDNAKSTVYLQMNTLKPEDTAVYYCAVDRLGSQGRYASAWWRSGDMDLWGKGTQVTVSS
B23: 12-MP05B12 VHH-hFc, monospecific monovalent (Fc fusion, part only; not given: Both Fc arms and linker, not shown: another chain or arm of the molecule; a dimerising Fc or GST; small tags and cut ends)
VHH: QVQLVESGGGLVQAGGSLRLSCAASGFTFDGYAIGWFRQAPGKEREGVSYITGSDGSTYYADSVKGRFTISSNNAKNTVYLHMNSLKPDDAAVYYCAIDRLGSRGAYVPIWWRSSDMDLWGKGTLVTVSS
B24: 7-MP01G08 VHH-hFc, monospecific monovalent (Fc fusion, part only; not given: Both Fc arms and linker, not shown: another chain or arm of the molecule; a dimerising Fc or GST; small tags and cut ends)
VHH: EVQLVESGGGLVQAGGSLRLSCAASGRAFSMYNMGWFRQAPGKEREFVAATGWSGANTPYADSVKGRFTISRDNTQNTVYLQMNSLKPEDTATYYCAADSIRLRSDVTRIPLEYDYWGQGTQVTVSS

Target: T1, mouse IL-2Rβ (mouse)
Assay: P.E. binding ELISA

Row | OD450 nm | Binder
1 | 0.048 OD450 nm | B1
2 | 0.048 OD450 nm | B2
3 | 0.046 OD450 nm | B3
4 | 0.047 OD450 nm | B4
5 | 0.048 OD450 nm | B5
6 | 0.048 OD450 nm | B6
7 | 0.048 OD450 nm | B7
8 | 0.049 OD450 nm | B8

Target: T2, human interleukin-2 receptor β-chain (IL-2Rβ; CD122), recombinant protein (human)
Assay: ELISA, monovalent VHH-hFc

Row | EC50 | Binder
9 | 0.373 nM | B9
10 | 0.092 nM | B10
11 | 0.206 nM | B11
12 | 0.148 nM | B12
13 | 0.64 nM | B13
14 | 0.215 nM | B14
15 | 0.197 nM | B15
16 | 0.67 nM | B16
17 | 0.174 nM | B17
18 | 0.086 nM | B18

Target: cynomolgus monkey IL-2Rα/CD25 subunit (cynomolgus monkey) (UniProt H6WS54)
Assay: ELISA, monovalent VHH-hFc

Sequence of cynomolgus monkey IL-2Rα/CD25 subunit (cynomolgus monkey) (H6WS54 entry or part of it): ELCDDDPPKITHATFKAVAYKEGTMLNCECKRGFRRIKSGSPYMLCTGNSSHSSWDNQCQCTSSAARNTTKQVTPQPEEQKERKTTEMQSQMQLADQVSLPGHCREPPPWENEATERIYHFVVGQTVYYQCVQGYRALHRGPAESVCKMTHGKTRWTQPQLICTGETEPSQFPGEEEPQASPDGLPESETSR

Row | EC50 | Binder
19 | 0.074 nM | B19
20 | 0.098 nM | B20
21 | 0.069 nM | B21
22 | 1.25 nM | B22
23 | 1.1 nM | B23
24 | 0.133 nM | B24

Target: T3, cynomolgus monkey IL-2Rβ/CD122 subunit (cynomolgus monkey)
Assay: ELISA, monovalent VHH-hFc

Row | EC50 | Binder
25 | 0.156 nM | B10
26 | 0.657 nM | B11
27 | 0.495 nM | B12
28 | 0.28 nM | B14
29 | 0.953 nM | B16
30 | 0.26 nM | B17
31 | 0.102 nM | B18

Target: human interleukin-2 receptor α-chain (IL-2Rα; CD25), recombinant protein (human) (UniProt P01589)
Assay: ELISA, monovalent VHH-hFc

Sequence of human interleukin-2 receptor α-chain (IL-2Rα; CD25), recombinant protein (human) (P01589 22-240 limits assumed): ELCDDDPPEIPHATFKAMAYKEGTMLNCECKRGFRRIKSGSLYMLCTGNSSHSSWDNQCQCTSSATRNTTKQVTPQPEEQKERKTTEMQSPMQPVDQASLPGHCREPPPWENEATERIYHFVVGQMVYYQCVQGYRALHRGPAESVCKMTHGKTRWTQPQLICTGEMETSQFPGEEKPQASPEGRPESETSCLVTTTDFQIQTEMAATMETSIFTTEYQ

Row | EC50 | Binder
32 | 0.078 nM | B19
33 | 0.105 nM | B20
34 | 0.065 nM | B21
35 | 0.378 nM | B22
36 | 0.13 nM | B23
37 | 0.173 nM | B24

Target: cynomolgus monkey IL-2Rα/CD25 subunit (cynomolgus monkey) (UniProt H6WS54)
Assay: ELISA, monovalent; EC50 cyno vs human subunit

Row | Fold change | Binder
38 | 1 fold | B19
39 | 0.9 fold | B20
40 | 1.1 fold | B21
41 | 3.3 fold | B22
42 | 8.5 fold | B23
43 | 0.8 fold | B24

Target: T3, cynomolgus monkey IL-2Rβ/CD122 subunit (cynomolgus monkey)
Assay: ELISA, monovalent; EC50 cyno vs human subunit

Row | Fold change | Binder
44 | 1.7 fold | B10
45 | 3.2 fold | B11
46 | 3.3 fold | B12
47 | 1.3 fold | B14
48 | 1.4 fold | B16
49 | 1.5 fold | B17
50 | 1.2 fold | B18
